Reference: the supplement of paper PMC9876800

Test system: peptide library, one residue held at a place counted from the S/T acceptor
Assay: relative phosphorylation of the sub-library (ratio to the mean residue at this position); higher = residue favoured
Settings: human
Procedure, shortened: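 Purified recombinant kinases (human or orthologue constructs) were incubated in 384-well plates with biotinylated degenerate peptide sub-libraries, each fixing one residue at one position around a central Ser/Thr. Peptides were at 50 μM, with 50 μM ATP spiked with γ-32P-ATP, for 90 min under kinase-specific conditions. Spots on streptavidin membranes were phosphorimaged and quantified by densitometry. Relative sub-library phosphorylation is a ratio to the mean residue at that position.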

PRKCQ, construct: Full length, sequence (Q04759 whole entry, looked up): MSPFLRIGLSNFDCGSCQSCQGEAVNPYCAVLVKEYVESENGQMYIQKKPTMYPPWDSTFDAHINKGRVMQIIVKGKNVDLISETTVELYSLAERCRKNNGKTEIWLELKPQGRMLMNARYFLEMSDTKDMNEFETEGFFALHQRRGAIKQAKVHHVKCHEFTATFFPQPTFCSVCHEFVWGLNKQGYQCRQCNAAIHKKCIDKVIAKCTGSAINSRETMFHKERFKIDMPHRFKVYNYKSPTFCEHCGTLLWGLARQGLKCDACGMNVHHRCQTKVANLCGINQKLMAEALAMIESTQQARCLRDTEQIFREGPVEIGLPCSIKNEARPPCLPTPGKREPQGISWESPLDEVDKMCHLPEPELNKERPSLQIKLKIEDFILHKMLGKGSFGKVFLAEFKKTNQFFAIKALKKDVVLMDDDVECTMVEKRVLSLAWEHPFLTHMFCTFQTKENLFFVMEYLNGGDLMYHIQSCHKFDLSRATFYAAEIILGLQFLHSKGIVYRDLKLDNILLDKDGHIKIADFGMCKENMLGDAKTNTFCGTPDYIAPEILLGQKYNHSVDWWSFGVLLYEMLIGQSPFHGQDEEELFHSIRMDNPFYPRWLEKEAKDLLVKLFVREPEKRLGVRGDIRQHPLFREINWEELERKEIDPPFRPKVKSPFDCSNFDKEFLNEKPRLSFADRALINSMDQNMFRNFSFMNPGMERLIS
PLK3, construct: Full length, sequence (Q9H4B4 whole entry, looked up): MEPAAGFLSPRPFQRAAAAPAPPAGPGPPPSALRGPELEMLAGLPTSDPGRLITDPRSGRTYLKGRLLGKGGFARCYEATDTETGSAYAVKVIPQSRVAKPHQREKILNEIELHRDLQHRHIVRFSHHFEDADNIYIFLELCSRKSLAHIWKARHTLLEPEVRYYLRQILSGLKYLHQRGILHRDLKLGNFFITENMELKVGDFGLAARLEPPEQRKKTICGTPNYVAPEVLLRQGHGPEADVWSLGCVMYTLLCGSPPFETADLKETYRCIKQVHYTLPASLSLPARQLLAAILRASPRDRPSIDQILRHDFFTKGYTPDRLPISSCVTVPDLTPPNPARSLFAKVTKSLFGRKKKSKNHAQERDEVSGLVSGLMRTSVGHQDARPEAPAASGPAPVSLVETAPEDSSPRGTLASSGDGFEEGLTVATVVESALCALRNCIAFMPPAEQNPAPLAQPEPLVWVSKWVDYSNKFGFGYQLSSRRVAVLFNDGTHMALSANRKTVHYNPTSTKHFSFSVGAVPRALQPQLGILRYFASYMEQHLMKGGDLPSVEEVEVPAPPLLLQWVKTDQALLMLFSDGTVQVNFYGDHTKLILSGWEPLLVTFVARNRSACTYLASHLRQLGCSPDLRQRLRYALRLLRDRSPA
RPS6KA3, construct: Full length, sequence (P51812 whole entry, looked up): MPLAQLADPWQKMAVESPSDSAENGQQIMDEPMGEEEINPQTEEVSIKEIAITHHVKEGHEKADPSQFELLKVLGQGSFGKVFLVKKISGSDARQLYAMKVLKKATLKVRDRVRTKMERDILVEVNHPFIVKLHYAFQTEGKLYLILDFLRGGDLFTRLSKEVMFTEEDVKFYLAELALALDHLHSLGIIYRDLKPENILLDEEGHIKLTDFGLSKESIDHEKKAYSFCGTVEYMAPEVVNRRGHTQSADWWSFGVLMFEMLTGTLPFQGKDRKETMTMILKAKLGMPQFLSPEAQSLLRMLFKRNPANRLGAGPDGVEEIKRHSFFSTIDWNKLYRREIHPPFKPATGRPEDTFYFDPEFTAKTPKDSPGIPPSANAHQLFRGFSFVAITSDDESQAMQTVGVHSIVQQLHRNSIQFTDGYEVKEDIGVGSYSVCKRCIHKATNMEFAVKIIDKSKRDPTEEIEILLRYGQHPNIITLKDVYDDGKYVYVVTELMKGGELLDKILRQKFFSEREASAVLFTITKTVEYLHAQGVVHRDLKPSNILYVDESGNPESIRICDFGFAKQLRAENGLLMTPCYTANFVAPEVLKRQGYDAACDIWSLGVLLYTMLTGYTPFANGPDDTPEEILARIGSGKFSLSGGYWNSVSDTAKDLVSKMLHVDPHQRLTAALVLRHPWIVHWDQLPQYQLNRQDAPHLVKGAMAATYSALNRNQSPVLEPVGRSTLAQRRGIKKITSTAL
ROCK2, construct: aa5-554, sequence (O75116 5-554, looked up): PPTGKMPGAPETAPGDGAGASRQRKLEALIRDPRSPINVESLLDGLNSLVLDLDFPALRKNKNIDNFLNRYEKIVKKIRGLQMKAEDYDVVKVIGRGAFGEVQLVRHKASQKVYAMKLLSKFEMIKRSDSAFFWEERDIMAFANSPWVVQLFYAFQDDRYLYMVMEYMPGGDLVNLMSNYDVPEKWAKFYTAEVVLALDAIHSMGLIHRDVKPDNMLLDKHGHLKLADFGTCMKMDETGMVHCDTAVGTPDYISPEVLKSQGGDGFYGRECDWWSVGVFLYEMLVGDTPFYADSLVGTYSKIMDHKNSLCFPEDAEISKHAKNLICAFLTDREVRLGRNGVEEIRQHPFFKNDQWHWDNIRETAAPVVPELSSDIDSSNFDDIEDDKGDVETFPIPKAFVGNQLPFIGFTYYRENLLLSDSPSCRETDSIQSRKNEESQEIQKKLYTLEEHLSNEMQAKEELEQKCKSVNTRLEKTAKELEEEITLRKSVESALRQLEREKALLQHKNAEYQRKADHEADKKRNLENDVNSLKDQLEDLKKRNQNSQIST

PLK3, construct: Full length (from UniProt Q9H4B4)
relative phosphorylation
Settings	at +1	at +2	at +3	at +4	at -1	at -2	at -3	at -4	at -5
A fixed	0.585	0.878	0.681	0.695	0.828	0.711	0.85	0.948	1.07
D fixed	0.463	1.91	1.91	1.6	1.79	3.16	1.45	1.38	1.13
E fixed	0.565	1.84	2.75	1.82	1.45	1.99	3.4	1.38	1.09
F fixed	3.8	1.14	0.839	1.09	0.798	0.831	1.1	0.963	1.08
G fixed	0.491	0.475	0.766	0.819	0.519	0.688	0.865	1.05	1.16
H fixed	0.771	1.02	1.06	0.913	1.1	0.865	1.11	0.945	1.09
I fixed	0.989	1.01	0.724	0.928	0.886	0.364	0.515	0.905	0.795
K fixed	0.517	0.343	0.519	0.61	0.76	0.418	0.535	0.932	1.2
L fixed	1.06	0.92	0.831	1.21	0.966	0.654	1.08	1.1	0.85
M fixed	1.75	1.13	0.767	1.09	1.02	0.773	1.11	0.878	0.848
N fixed	0.526	0.973	1.16	0.935	1.3	2.15	0.842	1.02	1.11
P fixed	0.196	0.444	0.598	1.03	0.965	0.517	0.585	0.844	1.04
Q fixed	0.93	0.714	0.876	0.881	0.929	1.06	0.778	0.831	0.757
R fixed	0.87	0.56	0.642	0.706	1.06	0.592	0.597	0.906	1.13
V fixed	0.814	0.806	0.706	0.656	0.928	0.437	0.476	0.834	0.769
W fixed	1.04	1.51	1.1	1.12	0.566	0.654	0.934	1.19	0.964
Y fixed	1.62	1.34	1.07	0.888	1.12	1.13	0.768	0.89	0.931
pThr fixed	1.18	1.97	1.44	2.41	0.624	0.625	0.835	1.08	0.914
pTyr fixed	1.06	6.48	2.1	2.03	3.06	0.735	1.01	1.17	1.11

PRKCQ, construct: Full length (from UniProt Q04759)
relative phosphorylation
Settings	at +1	at +2	at +3	at +4	at -1	at -2	at -3	at -4	at -5
A fixed	0.568	0.491	0.841	0.988	1.06	0.884	0.837	1.17	1.13
D fixed	0.139	0.187	0.373	0.434	0.378	0.333	0.326	0.642	0.786
E fixed	0.184	0.14	0.362	0.385	0.315	0.305	0.344	0.725	0.58
F fixed	1.93	0.626	0.883	0.614	0.853	0.689	0.694	0.748	0.981
G fixed	0.411	0.376	0.887	1.1	1.6	1.22	0.871	1.41	1.21
H fixed	0.815	1.45	1.33	1.6	1.08	1.15	1.33	1.2	1.14
I fixed	1.46	0.612	0.762	0.629	0.309	0.348	0.329	0.522	0.769
K fixed	1.63	3.19	1.91	2.4	1.89	1.89	1.72	1.51	1.58
L fixed	1.16	0.553	0.969	0.652	0.64	0.472	0.462	0.553	0.857
M fixed	1.68	0.819	0.85	0.721	0.861	0.612	0.583	0.784	0.682
N fixed	0.441	0.873	0.782	1.01	1.21	1.11	0.915	1.05	0.899
P fixed	0.185	0.274	0.557	1.23	0.941	0.462	0.706	1.1	1.02
Q fixed	0.952	0.748	0.929	0.944	1.09	1.22	0.982	0.996	0.862
R fixed	1.83	3.66	2.14	1.88	2.29	4.01	4.83	1.95	1.88
V fixed	1.35	0.598	0.776	0.688	0.539	0.47	0.435	0.669	0.775
W fixed	1.07	0.859	1.31	0.884	0.728	1.01	0.814	1.22	1.12
Y fixed	1.21	1.54	1.33	0.827	1.2	0.822	0.816	0.757	0.734
pThr fixed	0.427	0.275	0.349	0.36	0.266	0.481	0.571	0.689	0.572
pTyr fixed	0.351	0.255	0.379	0.263	0.543	0.497	0.566	0.574	0.645

ROCK2, construct: aa5-554 (from UniProt O75116)
relative phosphorylation
Settings	at +1	at +2	at +3	at +4	at -1	at -2	at -3	at -4	at -5
A fixed	0.695	1.01	0.926	0.921	0.75	0.607	0.647	0.938	1
D fixed	0.471	0.48	0.757	0.745	0.406	0.263	0.297	0.58	0.562
E fixed	0.455	0.51	0.614	0.751	0.301	0.251	0.28	0.613	0.471
F fixed	0.69	0.707	0.962	1.1	0.559	0.474	0.341	0.622	0.679
G fixed	0.957	0.876	1.73	1.31	1.08	0.706	0.724	1.22	1.19
H fixed	0.984	1.16	1.25	1.1	1.16	1.42	1.59	1.13	1.25
I fixed	1.49	1.29	0.948	0.984	0.482	0.3	0.281	0.516	0.692
K fixed	1.19	1.44	0.998	1.2	2.77	2.71	2.57	2.3	2.45
L fixed	1.48	1.08	0.952	0.886	0.912	0.391	0.304	0.504	0.494
M fixed	1.52	0.743	0.876	0.929	0.792	0.446	0.361	0.707	0.571
N fixed	1.43	0.734	0.931	1.04	1.15	0.937	0.637	0.836	0.779
P fixed	0.266	0.935	1.28	1.29	1.28	0.665	0.785	1.19	1.04
Q fixed	1.51	0.75	0.835	0.946	1.09	0.801	0.651	0.904	0.865
R fixed	1.77	1.81	0.97	1.07	2.2	5.27	6.24	2.89	2.83
V fixed	0.908	1.48	0.835	0.727	0.619	0.321	0.297	0.555	0.641
W fixed	0.616	0.922	1.08	1.09	0.528	0.762	0.53	0.822	0.736
Y fixed	0.564	1.07	1.06	0.914	0.929	0.681	0.461	0.673	0.758
pThr fixed	0.595	0.566	0.556	0.763	0.336	0.465	0.494	0.755	0.805
pTyr fixed	0.409	0.592	0.736	0.663	0.386	0.338	0.435	0.489	0.705

RPS6KA3, construct: Full length (from UniProt P51812)
relative phosphorylation
Settings	at +1	at +2	at +3	at +4	at -1	at -2	at -3	at -4	at -5
A fixed	0.876	1.48	0.988	1.03	0.917	0.555	0.652	1.08	0.961
D fixed	0.617	1.08	1.48	1.39	0.636	0.658	0.452	0.62	0.501
E fixed	0.97	0.833	1.58	1.24	0.466	0.617	0.402	0.76	0.4
F fixed	0.848	0.548	0.78	0.679	0.709	0.568	0.327	0.682	0.703
G fixed	0.704	1.17	1.21	1.17	1.13	0.85	0.555	1.15	1.01
H fixed	1.16	1.34	1.14	0.914	1.01	0.979	0.566	0.911	0.892
I fixed	1.2	0.77	0.666	0.826	0.652	0.615	0.373	0.834	0.762
K fixed	1.16	1.08	0.972	1.17	1.49	2.6	1.7	1.8	2.04
L fixed	0.927	0.732	0.905	0.652	0.906	0.976	0.37	0.811	0.944
M fixed	1.1	0.727	0.722	0.828	0.933	0.614	0.291	0.99	0.736
N fixed	0.957	0.985	0.827	0.902	1.02	0.708	0.464	0.855	0.719
P fixed	0.432	0.677	0.997	1.6	2.36	0.457	0.785	0.863	0.951
Q fixed	1.22	0.716	0.808	0.895	0.935	0.962	0.641	1.01	0.836
R fixed	1.34	1.59	1.11	1.26	1.39	4.29	8.12	2.46	3.13
V fixed	1.45	1.07	0.839	0.941	0.752	0.591	0.393	0.698	0.852
W fixed	0.887	0.858	0.998	0.738	0.628	0.361	0.408	0.725	0.807
Y fixed	1.15	1.34	0.979	0.762	1.06	0.601	0.498	0.753	0.748
pThr fixed	1.89	1.03	1.64	2.38	0.318	0.319	0.343	0.719	0.648
pTyr fixed	1.7	1.14	2.08	1.47	0.543	0.3	0.306	0.448	0.668
